In article PMC9898670, “A solution structure analysis reveals a bent collagen triple helix in the complement activation recognition molecule mannan-binding lectin” (The Journal of Biological Chemistry, 2022):
Non-standard residues stand in square brackets, D forms with d. Hyp = O=C(O)[C@@H]1C[C@@H](O)CN1

Experiments:
[1] = target: the molecule itself; test: AUC; sedimentation velocity, 50,000 rpm, 20 °C, 137 mM PBS pH 7.4 or 20 mM L-histidine pH 6.0 in H2O (10 peptides, 0.2-2.5 mg/ml) and 20 mM L-histidine in 2H2O (six peptides, 0.75-4 mg/ml); c(s) analysis with SEDFIT; peptides equilibrated for at least 48 h at room temperature to assemble into triple helices
[2] = target: the molecule itself; test: circular dichroism; spectra 190-260 nm and melting curves at 226 nm from 0 to 70 °C, average heating rate 0.1 °C/min

B1: T3-785 collagen peptide, Ac-(POG)3-ITGARGLAGPOG-(POG)3-NH2 (peptide)
peptide: Ac-P[Hyp]GP[Hyp]GP[Hyp]GITGARGLAGP[Hyp]GP[Hyp]GP[Hyp]GP[Hyp]G-NH2
SMILES: CC[C@H](C)[C@H](NC(=O)CNC(=O)[C@@H]1C[C@@H](O)CN1C(=O)[C@@H]1CCCN1C(=O)CNC(=O)[C@@H]1C[C@@H](O)CN1C(=O)[C@@H]1CCCN1C(=O)CNC(=O)[C@@H]1C[C@@H](O)CN1C(=O)[C@@H]1CCCN1C(C)=O)C(=O)N[C@H](C(=O)NCC(=O)N[C@@H](C)C(=O)N[C@@H](CCCNC(=N)N)C(=O)NCC(=O)N[C@@H](CC(C)C)C(=O)N[C@@H](C)C(=O)NCC(=O)N1CCC[C@H]1C(=O)N1C[C@H](O)C[C@H]1C(=O)NCC(=O)N1CCC[C@H]1C(=O)N1C[C@H](O)C[C@H]1C(=O)NCC(=O)N1CCC[C@H]1C(=O)N1C[C@H](O)C[C@H]1C(=O)NCC(=O)N1CCC[C@H]1C(=O)N1C[C@H](O)C[C@H]1C(=O)NCC(N)=O)[C@@H](C)O
notes: (POG)3 written out; Homotrimeric collagen triple helix; also called Type III T3-785 peptide
[1]
  binding result: binds

B2: MBL-12 (12 triplets) collagen peptide, Ac-(POG)5-EPGQGLRG-(POG)5-NH2 (peptide)
peptide: Ac-P[Hyp]GP[Hyp]GP[Hyp]GP[Hyp]GP[Hyp]GEPGQGLRGP[Hyp]GP[Hyp]GP[Hyp]GP[Hyp]GP[Hyp]G-NH2
SMILES: CC(=O)N1CCC[C@H]1C(=O)N1C[C@H](O)C[C@H]1C(=O)NCC(=O)N1CCC[C@H]1C(=O)N1C[C@H](O)C[C@H]1C(=O)NCC(=O)N1CCC[C@H]1C(=O)N1C[C@H](O)C[C@H]1C(=O)NCC(=O)N1CCC[C@H]1C(=O)N1C[C@H](O)C[C@H]1C(=O)NCC(=O)N1CCC[C@H]1C(=O)N1C[C@H](O)C[C@H]1C(=O)NCC(=O)N[C@@H](CCC(=O)O)C(=O)N1CCC[C@H]1C(=O)NCC(=O)N[C@@H](CCC(N)=O)C(=O)NCC(=O)N[C@@H](CC(C)C)C(=O)N[C@@H](CCCNC(=N)N)C(=O)NCC(=O)N1CCC[C@H]1C(=O)N1C[C@H](O)C[C@H]1C(=O)NCC(=O)N1CCC[C@H]1C(=O)N1C[C@H](O)C[C@H]1C(=O)NCC(=O)N1CCC[C@H]1C(=O)N1C[C@H](O)C[C@H]1C(=O)NCC(=O)N1CCC[C@H]1C(=O)N1C[C@H](O)C[C@H]1C(=O)NCC(=O)N1CCC[C@H]1C(=O)N1C[C@H](O)C[C@H]1C(=O)NCC(N)=O
notes: (POG)5 written out; Homotrimeric collagen triple helix
[2]
  binding result: binds

B3: MBL-E (MBL EOG) collagen peptide, Ac-(POG)5-EOGQGLRG-(POG)3-NH2 (peptide)
peptide: Ac-P[Hyp]GP[Hyp]GP[Hyp]GP[Hyp]GP[Hyp]GE[Hyp]GQGLRGP[Hyp]GP[Hyp]GP[Hyp]G-NH2
SMILES: CC(=O)N1CCC[C@H]1C(=O)N1C[C@H](O)C[C@H]1C(=O)NCC(=O)N1CCC[C@H]1C(=O)N1C[C@H](O)C[C@H]1C(=O)NCC(=O)N1CCC[C@H]1C(=O)N1C[C@H](O)C[C@H]1C(=O)NCC(=O)N1CCC[C@H]1C(=O)N1C[C@H](O)C[C@H]1C(=O)NCC(=O)N1CCC[C@H]1C(=O)N1C[C@H](O)C[C@H]1C(=O)NCC(=O)N[C@@H](CCC(=O)O)C(=O)N1C[C@H](O)C[C@H]1C(=O)NCC(=O)N[C@@H](CCC(N)=O)C(=O)NCC(=O)N[C@@H](CC(C)C)C(=O)N[C@@H](CCCNC(=N)N)C(=O)NCC(=O)N1CCC[C@H]1C(=O)N1C[C@H](O)C[C@H]1C(=O)NCC(=O)N1CCC[C@H]1C(=O)N1C[C@H](O)C[C@H]1C(=O)NCC(=O)N1CCC[C@H]1C(=O)N1C[C@H](O)C[C@H]1C(=O)NCC(N)=O
notes: (POG)5 written out; (POG)3 written out; Homotrimeric collagen triple helix; form used in AUC, SAXS and SANS; The CD and DSC runs used a form with one POG triplet fewer
[1]
  binding result: binds

B4: MBL-N (MBL native) collagen peptide, Ac-(POG)4-EPGQGLRG-(POG)3-NH2 (peptide)
peptide: Ac-P[Hyp]GP[Hyp]GP[Hyp]GP[Hyp]GEPGQGLRGP[Hyp]GP[Hyp]GP[Hyp]G-NH2
SMILES: CC(=O)N1CCC[C@H]1C(=O)N1C[C@H](O)C[C@H]1C(=O)NCC(=O)N1CCC[C@H]1C(=O)N1C[C@H](O)C[C@H]1C(=O)NCC(=O)N1CCC[C@H]1C(=O)N1C[C@H](O)C[C@H]1C(=O)NCC(=O)N1CCC[C@H]1C(=O)N1C[C@H](O)C[C@H]1C(=O)NCC(=O)N[C@@H](CCC(=O)O)C(=O)N1CCC[C@H]1C(=O)NCC(=O)N[C@@H](CCC(N)=O)C(=O)NCC(=O)N[C@@H](CC(C)C)C(=O)N[C@@H](CCCNC(=N)N)C(=O)NCC(=O)N1CCC[C@H]1C(=O)N1C[C@H](O)C[C@H]1C(=O)NCC(=O)N1CCC[C@H]1C(=O)N1C[C@H](O)C[C@H]1C(=O)NCC(=O)N1CCC[C@H]1C(=O)N1C[C@H](O)C[C@H]1C(=O)NCC(N)=O
notes: (POG)4 written out; (POG)3 written out; Homotrimeric collagen triple helix
[2]
  binding result: binds
